Article PMC4794606 (Molecules and Cells, 2016)

B1: truncated/mature human extracellular superoxide dismutase (residues 19-240), (His)6-FLAG-PreScission site fusion (enzyme, UniProt P08294 19-240, looked up)
chain: WTGEDSAEPNSDSAEWIRDMYAKVTEIWQEVMQRRDDDGALHAACQVQPSATLDAAQPRVTGVVLFRQLAPRAKLDAFFALEGFPTEPNSSSRAIHVHQFGDLSQGCESTGPHYNPLAVPHPQHPGDFGNFAVRDGSLWRYRAGLAASLAGPHSIVGRAVVVHAGEDDLGRGGNQASVENGNAGRRLACCVVGVCGPGLWERQAREHSERKKRRRESECKAA
modifications: N-glycosylated at Asn107

Columns and labels:
[1] = target: full length human extracellular superoxide dismutase (residues 1-240), (His)6-FLAG-PreScission site fusion (human) (UniProt P08294); assay: SEC
SEC = target: the molecule itself; assay: SEC

Molecule	stoichiometry N [1]	stoichiometry N (SEC)
full length human extracellular superoxide dismutase (residues 1-240), (His)6-FLAG-PreScission site fusion (from UniProt P08294 19-240) (enzyme)	8	
B1		8
